Experimental data published in publication PMC9860310 (Proceedings of the National Academy of Sciences of the …, 2022).

Molecular target: GroEL (Escherichia coli, UniProt P0A6F5 1-548)
Experiment: reconstitution of the complex

GroEL, sequence (P0A6F5 whole entry): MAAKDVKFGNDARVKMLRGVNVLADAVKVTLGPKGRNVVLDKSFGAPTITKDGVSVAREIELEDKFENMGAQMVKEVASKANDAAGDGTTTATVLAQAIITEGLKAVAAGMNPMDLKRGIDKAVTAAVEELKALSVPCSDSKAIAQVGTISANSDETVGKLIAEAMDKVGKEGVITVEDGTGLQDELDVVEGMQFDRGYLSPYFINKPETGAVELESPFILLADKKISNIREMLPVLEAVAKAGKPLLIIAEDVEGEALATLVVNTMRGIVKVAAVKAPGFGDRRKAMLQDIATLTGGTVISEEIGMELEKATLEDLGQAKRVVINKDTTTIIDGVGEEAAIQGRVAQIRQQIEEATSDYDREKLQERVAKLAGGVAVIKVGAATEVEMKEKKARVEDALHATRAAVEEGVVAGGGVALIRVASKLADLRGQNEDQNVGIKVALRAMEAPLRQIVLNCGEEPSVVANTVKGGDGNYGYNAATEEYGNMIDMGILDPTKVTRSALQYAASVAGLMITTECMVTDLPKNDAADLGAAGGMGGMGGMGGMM

binding result: binds
B1: GroES (natural protein, Escherichia coli, UniProt P0A6F9 1-97, looked up)
chain: MNIRPLHDRVIVKRKEVETKSAGGIVLTGSAAAKSTRGEVLAVGNGRILENGEVKPLDVKVGDIVIFNDGYGVKSEKIDNEEVLIMSESDILAIVEA
